Target: human PD-1 (programmed cell death protein-1) (human, UniProt Q15116 25-288)
Experiment: flow cytometry on enriched, anti-CD3-activated human T cells; sdAb-Fc titrated 167 nM to 0.00847 nM, anti-human IgG Alexa Fluor 647 detection
Experimental: For enrichment and activation of human T cells, Peripheral blood mononuclear cells (PBMCs) were isolated from human donor blood using density gradient centrifugation. Blood samples were diluted with PBS/2% FBS (1:2) and 30 mL of diluted blood was layered onto 15 mL of Lymphoprep density gradient medium. After centrifugation, the PBMC layer at the interphase of plasma and Lymphoprep was removed and remaining red blood cells were lysed using red blood cell lysis buffer for 5 minutes at room temperature. Non-T cell populations were labeled with biotinylated anti-lineage marker antibodies against CD14, CD16, CD19, CD20, CD36, CD56, CD123, TCR γ/δ (20 minutes, room temperature) and depleted using magnetic streptavidin particles. The unbound cell supernatant containing the T cell fraction was retained. Enriched human T cells were activated for 3 days by plating them at a density of about 2×10⁶ cells per mL media in tissue culture plates coated with 1 μg/mL mouse anti-human CD3 (OKT3). Activated T cells were washed once in PBS before further use in binding assays.

human PD-1 (programmed cell death protein-1), sequence (Q15116 25-288 limits assumed): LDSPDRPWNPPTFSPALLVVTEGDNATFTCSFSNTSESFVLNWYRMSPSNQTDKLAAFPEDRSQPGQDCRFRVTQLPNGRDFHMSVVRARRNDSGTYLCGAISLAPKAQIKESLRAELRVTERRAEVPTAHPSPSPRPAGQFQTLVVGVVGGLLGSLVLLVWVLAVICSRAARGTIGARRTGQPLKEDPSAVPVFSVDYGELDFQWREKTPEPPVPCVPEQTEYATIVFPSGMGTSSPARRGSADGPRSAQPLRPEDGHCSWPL

B1: hz18H10v7 PD-1 sdAb-Fc fusion protein (humanized variant of 18H10) (Fc fusion)
chain: EVQLVESGGGEVQPGGSLRLSCAASGSITGANTMGWYRQAPGKQRDLVALIGNYVTHYAESVKGRFTISRDNAKNTVYLQMSSLRAEDTAVYYCYLYTDNLGTSWGQGTLVTVKP
notes: also called humanized 18H10 (hzv7); hzv7; not shown: hinge/linker and Fc of the sdAb-Fc fusion are not specified for the humanized variants
B1: binds.
